The results in this text go back to the supplement of paper PMC7877785.

± gives the uncertainty stated by the source.

This series can be described thus: self-splicing fitness, log relative to wild type (ln ratio); higher = more splicing; Tetrahymena group I intron in knt gene, E. coli kanamycin selection, DiMSum; sequences stand for … in CUCUCU…GGAGGGAAAAGUUAUCAGGCAUGCACCUGGUAGCUAGUCUUUAAACCAAUAGAUUGCAUCGGUUUAAAAGGCAAGACCGUCAAAUUGCGGGAAAGGGGUCAACAGCCGUUCAGUACCAAGUCUCAGGGGAAACUUUGAGAUGGCCUUGCAAAGGGUAUGGUAAUAAGCUGACGGACAUGGUCCUAACCACGCAGCCAAGUCCUAAGUCAACAGAUCUUCUGUUGAUAUGGAUGCAGUUCACAGACUAAAUGUCGGUCGGGGAAGAUGUAUUCUUCUCAUAAGAUAUAGUCGGACCUCUCCUUAAUGGGAGCUAGCGGAUGAAGUGAUGCAACACUGGAGCCGCUGGGAACUAAUUUGUAUGCGAAAGUAUAUUGAUUAGUUUUGGAGUACUCGUGGUCG
In short, it runs like this: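 Colonies from six replicate transformations of E. coli BL21(DE3) were pooled and amplicon-sequenced on an Illumina HiSeq 2500. The library placed an intron with all eight P1ex-region nucleotides randomised inside the knt kanamycin-resistance gene on pET-22b(+), and cells grew overnight at 37°C or 30°C on LB agar with or without 25 μg/mL kanamycin (plus 100 μg/mL carbenicillin, 50 μM IPTG, 0.2% rhamnose). Fitness is the DiMSum error-weighted combination of wild-type-normalised replicate fold changes, kanamycin versus none.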

For CUCUAGCAAUAUUACGGCUU, the “self-splicing fitness (ln)” value by setting is: (30 °C) -3.45 ± 0.32; (37 °C) -3.52 ± 0.42.
On to AACAAGCAAUAUUACGCGGC, for which the “self-splicing fitness (ln)” value was -3.28 ± 0.26 (30 °C) and -1.71 ± 0.19 (37 °C).
Regarding UCUGAGCAAUAUUACGACUG, the “self-splicing fitness (ln)” value (30 °C) was -3.15 ± 0.27 and the “self-splicing fitness (ln)” value (37 °C) was -2.26 ± 0.28.
On to AAGAAGCAAUAUUACGUAAC, for which the “self-splicing fitness (ln)” value is, setting by setting: (30 °C) -2.35 ± 0.14; (37 °C) -1.2 ± 0.12.
With GGUAAGCAAUAUUACGUUCU, the “self-splicing fitness (ln)” value (30 °C) was -1.44 ± 0.12 and the “self-splicing fitness (ln)” value (37 °C) was -0.359 ± 0.12.
Turning to AUCUAGCAAUAUUACGAGCC, the “self-splicing fitness (ln)” value (30 °C) is -2.69 ± 0.45.
Take AUCGAGCAAUAUUACGUCCU: the “self-splicing fitness (ln)” value (30 °C) is -1.18 ± 0.11 and the “self-splicing fitness (ln)” value (37 °C) is -0.423 ± 0.18.
Taken in the same sequence, the figures for CUGGAGCAAUAUUACGACGA were -1.9 ± 0.29 and -1.7 ± 0.33.
With GCCGAGCAAUAUUACGACCU, the “self-splicing fitness (ln)” value runs as follows: (30 °C) -2.33 ± 0.3; (37 °C) -1.54 ± 0.36.
Regarding GAGAAGCAAUAUUACGAUGA, the “self-splicing fitness (ln)” value (30 °C) was -1.04 ± 0.12 and the “self-splicing fitness (ln)” value (37 °C) was -0.334 ± 0.11.
Turning to AUGGAGCAAUAUUACGUUUU, the “self-splicing fitness (ln)” value by setting is: (30 °C) -3.1 ± 0.36; (37 °C) -2.05 ± 0.31.
In the case of AUGUAGCAAUAUUACGAAAA, the “self-splicing fitness (ln)” value runs as follows: (30 °C) -0.961 ± 0.34; (37 °C) -0.547 ± 0.31.
Taken in the same sequence, the figures for UCUCAGCAAUAUUACGCAAA were -3.55 ± 0.4 and -1.59 ± 0.21.
As to GUCCAGCAAUAUUACGUAUA, the “self-splicing fitness (ln)” value is, setting by setting: (30 °C) -1.37 ± 0.073; (37 °C) -0.787 ± 0.073.
On to CUAGAGCAAUAUUACGAACC, for which the “self-splicing fitness (ln)” value (30 °C) was -1.8 ± 0.47.
With CUUCAGCAAUAUUACGAUAU, the “self-splicing fitness (ln)” value (30 °C) is -3.28 ± 0.22 and the “self-splicing fitness (ln)” value (37 °C) was -1.73 ± 0.27.
Turning to UCUGAGCAAUAUUACGGCCU, the “self-splicing fitness (ln)” value runs as follows: (30 °C) -3.3 ± 0.29; (37 °C) -1.6 ± 0.3.
As to CGGUAGCAAUAUUACGGAUU, the “self-splicing fitness (ln)” value was -2.63 ± 0.36 (30 °C) and -2.23 ± 0.34 (37 °C).
For CAUAAGCAAUAUUACGCGUU, the “self-splicing fitness (ln)” value reads like this: (30 °C) -3.3 ± 0.15; (37 °C) -1.55 ± 0.13.
As to CCAUAGCAAUAUUACGAACA, the “self-splicing fitness (ln)” value (30 °C) was -3.77 ± 0.22 and the “self-splicing fitness (ln)” value (37 °C) was -2.41 ± 0.25.
CAAAAGCAAUAUUACGCUGG: the “self-splicing fitness (ln)” value is -2.88 ± 0.19 (30 °C) and -1.9 ± 0.17 (37 °C).
Take AGCCAGCAAUAUUACGUUUU: the “self-splicing fitness (ln)” value is, setting by setting: (30 °C) -3.78 ± 0.14; (37 °C) -2.06 ± 0.11.
Consider AACCAGCAAUAUUACGCACC, for which the “self-splicing fitness (ln)” value stood at 0.0606 ± 0.077 (30 °C) and 0.308 ± 0.1 (37 °C).
Consider GAGGAGCAAUAUUACGCUCU, for which the “self-splicing fitness (ln)” value is -2.18 ± 0.42 (30 °C) and -1.73 ± 0.47 (37 °C).
On to AACGAGCAAUAUUACGAUCU, for which the “self-splicing fitness (ln)” value by setting is: (30 °C) -0.758 ± 0.088; (37 °C) -0.0761 ± 0.1.
As to ACGCAGCAAUAUUACGCAGA, the “self-splicing fitness (ln)” value by setting is: (30 °C) -2.74 ± 0.18; (37 °C) -1.92 ± 0.12.
Taken in the same sequence, the figures for UUCCAGCAAUAUUACGGCAU were -1.79 ± 0.085 and -0.66 ± 0.089.
Take ACACAGCAAUAUUACGGGCC: the “self-splicing fitness (ln)” value by setting is: (30 °C) -3.37 ± 0.19; (37 °C) -2.11 ± 0.18.
The corresponding values for GCUUAGCAAUAUUACGUUGU are -1.5 ± 0.066 and -0.844 ± 0.093.
As for CCCCAGCAAUAUUACGCGGG, the “self-splicing fitness (ln)” value (30 °C) was -4.19 ± 0.18 and the “self-splicing fitness (ln)” value (37 °C) was -3.1 ± 0.23.
As to CAACAGCAAUAUUACGCGGU, the “self-splicing fitness (ln)” value is -2.36 ± 0.12 (30 °C) and -2.88 ± 0.28 (37 °C).
Consider CGGCAGCAAUAUUACGUCAU, for which the “self-splicing fitness (ln)” value is, setting by setting: (30 °C) -2.83 ± 0.12; (37 °C) -1.09 ± 0.092.
Turning to ACAUAGCAAUAUUACGUUCG, the “self-splicing fitness (ln)” value (30 °C) was -1.04 ± 0.075 and the “self-splicing fitness (ln)” value (37 °C) was -0.65 ± 0.1.
In the case of AAAAAGCAAUAUUACGUUUA, the “self-splicing fitness (ln)” value runs as follows: (30 °C) -1.4 ± 0.1; (37 °C) -0.799 ± 0.091.
ACAAAGCAAUAUUACGCGUU: the “self-splicing fitness (ln)” value is -3.19 ± 0.1 (30 °C) and -2.69 ± 0.14 (37 °C).
With GGCAAGCAAUAUUACGGGAG, the “self-splicing fitness (ln)” value was -2.47 ± 0.15 (30 °C) and -1.44 ± 0.18 (37 °C).
In the case of CUUCAGCAAUAUUACGUGAG, the “self-splicing fitness (ln)” value reads like this: (30 °C) -0.619 ± 0.031; (37 °C) -0.0413 ± 0.054.
As to AACCAGCAAUAUUACGGAUA, the “self-splicing fitness (ln)” value reads like this: (30 °C) -0.931 ± 0.069; (37 °C) -0.176 ± 0.074.
